Where two headings read alike, the source gives them in different places.
Legend:
[1] = target: T1, SARS-CoV-2 RBD E484K mutant (SARS-CoV-2, UniProt P0DTC2 334-527)
N501Y [2] = target: N501Y
[3] = target: T2, SARS-CoV-2 spike receptor-binding domain (RBD) (SARS-CoV-2, UniProt P0DTC2 319-541)
N501Y [4] = target: N501Y; remark: listed apart in the source
[5] = target: T2, SARS-CoV-2 spike receptor-binding …; remark: listed apart in the source
[6] = target: T2, SARS-CoV-2 spike receptor-binding …; test: indirect ELISA on coated RBD ('ELISA affinity')
[7] = target: T2, SARS-CoV-2 spike receptor-binding …; test: ELISA
[8] = target: T1, SARS-CoV-2 RBD E484K mutant; test: ELISA
[9] = target: T2, SARS-CoV-2 spike receptor-binding …; remark: listed apart in the source

Binder	binding affinity fold change relative to RBD WT [1] [fold]	binding affinity fold change relative to RBD WT (K417N) [fold]	binding affinity fold change relative to RBD WT (N439K) [fold]	binding affinity fold change relative to RBD WT (Y453F) [fold]	binding affinity fold change relative to RBD WT (A475V) [fold]	binding affinity fold change relative to RBD WT (N501Y [2]) [fold]	EC50 (read off the curve) [3] [nM]	EC50 (read off the curve) (N501Y [4]) [nM]	IC50 [5] [nM]	IC50 [6] [nM]	binding result [7]	binding result [8]	EC50 (read off the curve) [9] [nM]
Nb34 (VHH) VHH: DVQLVESGGGLVQAGGSLRLSCAASGFTFSNYVMYWGRQAPGKGREWVSGIDSDGSDTAYASSVKGRFTISRDNAKNTLYLQMNNLKPEDTALYYCVKSKDPYGSPWTRSEFDDYWGQGTQVTVSS	1.07	-1.96	1.18	1.2	-1	-5.79	~1	~7	0.63	0.47	–	–	–
Nb21 point mutant R31D (VHH) VHH: QVQLVESGGGLVQAGGSLRLSCAVSGLGAHDVGWFRRAPGKEREFVAAIGANGGNTNYLDSVKGRFTISRDNAKNTIYLQMNSLKPQDTAVYYCAARDIETAEYTYWGQGTQVTVSS	–	–	–	–	–	–	–	–	–	–	no binding	no binding	–
Nb36 (VHH) VHH: HVQLVESGGGLVQAGGSLTLTCAASGRTFSSETMDMGWFRQAPGKEREFVAADSWNDGSTYYADSVKGRFTISRDSAKNTLYLQMNSLKPEDTAVYYCAAETYSIYEKDDSWGYWGQGTQVTVSS	1.29	-2.94	1.43	1.32	-1.13	1.35	–	–	1.7	1.04	–	–	~3

— patent US20240043505A1 (UNIVERSITY OF PITTSBURGH OF THE COMMONWEALTH SYSTEM OF …, published 2024)
